By koff is commonly meant the rate constant with which the complex falls apart. A low value points to slow dissociation.

In assay [1] the target is T1, human collagen I (human, UniProt P02452 162-1218; P08123 80-1119). Nature of the assay: BLI; apparent KD (avidity), analysis by molarity. For orientation: Biolayer interferometry detects binding as a change in optical thickness at a sensor tip.
Assay [2] addresses T2, rat collagen III (rat, UniProt P13941 155-1218).
T2 chain: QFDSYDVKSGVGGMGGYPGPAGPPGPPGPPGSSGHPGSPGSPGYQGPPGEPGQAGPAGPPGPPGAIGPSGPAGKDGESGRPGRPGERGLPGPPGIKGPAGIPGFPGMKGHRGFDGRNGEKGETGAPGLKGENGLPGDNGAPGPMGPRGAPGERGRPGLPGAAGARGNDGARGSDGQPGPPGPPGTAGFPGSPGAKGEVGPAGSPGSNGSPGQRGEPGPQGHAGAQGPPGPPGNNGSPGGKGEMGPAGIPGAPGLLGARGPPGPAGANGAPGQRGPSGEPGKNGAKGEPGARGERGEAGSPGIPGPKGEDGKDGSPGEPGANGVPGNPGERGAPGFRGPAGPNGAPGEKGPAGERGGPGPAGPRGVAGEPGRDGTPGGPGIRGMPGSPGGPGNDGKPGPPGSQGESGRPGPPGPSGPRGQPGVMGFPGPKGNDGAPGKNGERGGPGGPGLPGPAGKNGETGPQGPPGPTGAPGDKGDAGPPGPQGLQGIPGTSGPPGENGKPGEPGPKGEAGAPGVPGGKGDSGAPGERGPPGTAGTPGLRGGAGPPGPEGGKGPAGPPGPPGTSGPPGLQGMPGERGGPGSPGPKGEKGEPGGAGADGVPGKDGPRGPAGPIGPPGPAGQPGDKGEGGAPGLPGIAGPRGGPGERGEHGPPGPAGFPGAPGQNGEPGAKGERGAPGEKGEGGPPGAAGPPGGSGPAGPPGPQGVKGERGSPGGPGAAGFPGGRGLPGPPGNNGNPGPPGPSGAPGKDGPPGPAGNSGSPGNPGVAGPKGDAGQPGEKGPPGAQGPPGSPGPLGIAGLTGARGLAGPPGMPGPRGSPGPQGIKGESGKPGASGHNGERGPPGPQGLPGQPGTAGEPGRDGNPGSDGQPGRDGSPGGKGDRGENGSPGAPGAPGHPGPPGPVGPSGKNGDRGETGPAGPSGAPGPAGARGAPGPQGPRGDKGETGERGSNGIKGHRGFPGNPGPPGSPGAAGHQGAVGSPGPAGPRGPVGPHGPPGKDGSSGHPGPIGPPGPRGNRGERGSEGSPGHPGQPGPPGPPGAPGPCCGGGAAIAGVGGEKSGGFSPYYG
As to the kind of experiment: BLI; apparent KD (avidity), analysis by molarity.

For assay [3], the target named is T3, mouse collagen I (mouse, UniProt P11087 152-1207; Q01149 86-1125). Nature of the assay: BLI; apparent KD (avidity), analysis by molarity.
The target in assay [4] is T4, rat collagen I (rat, UniProt P02454 152-1207; P02466 86-1125). Nature of the assay: BLI; apparent KD (avidity), analysis by molarity.
Assay [5] has as its target T5, human collagen III (human, UniProt P02461 154-1221).
T5 chain: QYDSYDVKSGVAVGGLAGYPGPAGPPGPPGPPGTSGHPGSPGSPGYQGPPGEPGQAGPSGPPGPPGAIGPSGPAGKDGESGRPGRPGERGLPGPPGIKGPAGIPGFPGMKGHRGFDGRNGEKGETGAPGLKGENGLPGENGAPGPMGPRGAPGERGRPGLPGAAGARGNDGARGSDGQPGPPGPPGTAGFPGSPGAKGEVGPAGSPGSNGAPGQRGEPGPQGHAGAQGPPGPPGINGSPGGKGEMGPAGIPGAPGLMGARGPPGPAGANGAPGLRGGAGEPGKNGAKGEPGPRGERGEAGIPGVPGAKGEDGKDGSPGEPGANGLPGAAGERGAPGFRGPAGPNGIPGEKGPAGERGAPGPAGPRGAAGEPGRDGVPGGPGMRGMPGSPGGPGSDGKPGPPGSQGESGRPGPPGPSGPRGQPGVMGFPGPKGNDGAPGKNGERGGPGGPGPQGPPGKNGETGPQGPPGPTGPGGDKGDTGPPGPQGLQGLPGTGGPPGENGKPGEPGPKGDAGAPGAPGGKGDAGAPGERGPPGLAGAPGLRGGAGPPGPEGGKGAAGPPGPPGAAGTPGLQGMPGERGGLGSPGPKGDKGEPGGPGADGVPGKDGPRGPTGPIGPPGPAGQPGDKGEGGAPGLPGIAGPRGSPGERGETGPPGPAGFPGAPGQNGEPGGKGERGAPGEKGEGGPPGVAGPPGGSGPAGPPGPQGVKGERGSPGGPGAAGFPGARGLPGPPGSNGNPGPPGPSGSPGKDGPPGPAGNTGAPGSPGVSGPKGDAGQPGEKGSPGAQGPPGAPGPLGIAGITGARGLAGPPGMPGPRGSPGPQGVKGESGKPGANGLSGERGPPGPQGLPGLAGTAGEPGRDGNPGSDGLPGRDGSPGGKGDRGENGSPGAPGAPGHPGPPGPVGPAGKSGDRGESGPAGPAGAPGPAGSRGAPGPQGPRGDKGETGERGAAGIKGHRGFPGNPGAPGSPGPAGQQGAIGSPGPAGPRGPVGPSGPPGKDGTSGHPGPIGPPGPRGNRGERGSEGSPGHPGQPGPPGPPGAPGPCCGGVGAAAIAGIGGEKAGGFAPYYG
Nature of the assay: BLI; apparent KD (avidity), analysis by molarity.

Assay [6] deals with T1, human collagen I. As to the kind of experiment: BLI; analysis by molarity.
Assay [7] has as its target T2, rat collagen III. As to the kind of experiment: BLI; analysis by molarity.
The target in assay [8] is T3, mouse collagen I. As to the kind of experiment: BLI; analysis by molarity.
The target in assay [9] is T4, rat collagen I. As to the kind of experiment: BLI; analysis by molarity.
In assay [10] the target is T5, human collagen III. As to the kind of experiment: BLI; analysis by molarity.
Assay [11] has as its target T1, human collagen I. Nature of the assay: BLI; analysis by binding sites/mol.
The target of assay [12] is T2, rat collagen III. Nature of the assay: BLI; analysis by binding sites/mol.
Assay [13] deals with T3, mouse collagen I. Nature of the assay: BLI; analysis by binding sites/mol.
Assay [14] has as its target T4, rat collagen I. Nature of the assay: BLI; analysis by binding sites/mol.
Assay [15] deals with T5, human collagen III. As to the kind of experiment: BLI; analysis by binding sites/mol.
Assay [16] deals with T1, human collagen I. Nature of the assay: BLI; apparent KD, analysis by binding sites/mol.
Assay [17] addresses T2, rat collagen III. As to the kind of experiment: BLI; apparent KD, analysis by binding sites/mol.
Assay [18] deals with T3, mouse collagen I. As to the kind of experiment: BLI; apparent KD, analysis by binding sites/mol.
The target of assay [19] is T4, rat collagen I. As to the kind of experiment: BLI; apparent KD, analysis by binding sites/mol.
Assay [20] has as its target T5, human collagen III. As to the kind of experiment: BLI; apparent KD, analysis by binding sites/mol.

T3 sequence (P11087 152-1207, chain 1 of 2): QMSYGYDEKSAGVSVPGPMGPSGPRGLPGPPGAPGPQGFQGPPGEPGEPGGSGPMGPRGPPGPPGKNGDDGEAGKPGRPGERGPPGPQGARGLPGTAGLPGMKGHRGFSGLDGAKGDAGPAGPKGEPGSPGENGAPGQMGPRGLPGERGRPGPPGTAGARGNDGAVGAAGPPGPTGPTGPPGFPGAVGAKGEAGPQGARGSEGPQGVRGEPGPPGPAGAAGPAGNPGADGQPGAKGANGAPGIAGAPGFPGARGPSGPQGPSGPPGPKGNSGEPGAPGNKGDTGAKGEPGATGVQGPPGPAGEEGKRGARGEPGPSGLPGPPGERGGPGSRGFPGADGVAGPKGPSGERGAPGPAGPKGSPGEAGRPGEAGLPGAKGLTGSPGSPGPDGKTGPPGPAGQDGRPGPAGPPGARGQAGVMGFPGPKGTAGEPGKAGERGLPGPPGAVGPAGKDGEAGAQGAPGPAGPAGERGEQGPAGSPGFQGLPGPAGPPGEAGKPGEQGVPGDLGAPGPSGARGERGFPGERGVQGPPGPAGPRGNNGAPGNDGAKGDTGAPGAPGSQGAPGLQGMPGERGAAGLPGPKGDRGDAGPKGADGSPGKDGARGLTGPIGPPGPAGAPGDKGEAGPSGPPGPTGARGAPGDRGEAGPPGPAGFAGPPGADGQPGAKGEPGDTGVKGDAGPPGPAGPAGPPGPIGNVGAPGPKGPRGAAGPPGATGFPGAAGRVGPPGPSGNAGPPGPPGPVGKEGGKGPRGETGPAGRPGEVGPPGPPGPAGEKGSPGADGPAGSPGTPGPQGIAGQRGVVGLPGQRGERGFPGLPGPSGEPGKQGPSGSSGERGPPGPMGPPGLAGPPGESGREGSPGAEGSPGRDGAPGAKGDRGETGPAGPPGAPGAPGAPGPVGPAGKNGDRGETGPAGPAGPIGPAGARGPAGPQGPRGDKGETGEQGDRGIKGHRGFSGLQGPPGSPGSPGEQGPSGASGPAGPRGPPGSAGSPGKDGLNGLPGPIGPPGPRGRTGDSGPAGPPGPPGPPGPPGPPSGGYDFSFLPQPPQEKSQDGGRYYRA
T3 sequence (Q01149 86-1125, chain 2 of 2): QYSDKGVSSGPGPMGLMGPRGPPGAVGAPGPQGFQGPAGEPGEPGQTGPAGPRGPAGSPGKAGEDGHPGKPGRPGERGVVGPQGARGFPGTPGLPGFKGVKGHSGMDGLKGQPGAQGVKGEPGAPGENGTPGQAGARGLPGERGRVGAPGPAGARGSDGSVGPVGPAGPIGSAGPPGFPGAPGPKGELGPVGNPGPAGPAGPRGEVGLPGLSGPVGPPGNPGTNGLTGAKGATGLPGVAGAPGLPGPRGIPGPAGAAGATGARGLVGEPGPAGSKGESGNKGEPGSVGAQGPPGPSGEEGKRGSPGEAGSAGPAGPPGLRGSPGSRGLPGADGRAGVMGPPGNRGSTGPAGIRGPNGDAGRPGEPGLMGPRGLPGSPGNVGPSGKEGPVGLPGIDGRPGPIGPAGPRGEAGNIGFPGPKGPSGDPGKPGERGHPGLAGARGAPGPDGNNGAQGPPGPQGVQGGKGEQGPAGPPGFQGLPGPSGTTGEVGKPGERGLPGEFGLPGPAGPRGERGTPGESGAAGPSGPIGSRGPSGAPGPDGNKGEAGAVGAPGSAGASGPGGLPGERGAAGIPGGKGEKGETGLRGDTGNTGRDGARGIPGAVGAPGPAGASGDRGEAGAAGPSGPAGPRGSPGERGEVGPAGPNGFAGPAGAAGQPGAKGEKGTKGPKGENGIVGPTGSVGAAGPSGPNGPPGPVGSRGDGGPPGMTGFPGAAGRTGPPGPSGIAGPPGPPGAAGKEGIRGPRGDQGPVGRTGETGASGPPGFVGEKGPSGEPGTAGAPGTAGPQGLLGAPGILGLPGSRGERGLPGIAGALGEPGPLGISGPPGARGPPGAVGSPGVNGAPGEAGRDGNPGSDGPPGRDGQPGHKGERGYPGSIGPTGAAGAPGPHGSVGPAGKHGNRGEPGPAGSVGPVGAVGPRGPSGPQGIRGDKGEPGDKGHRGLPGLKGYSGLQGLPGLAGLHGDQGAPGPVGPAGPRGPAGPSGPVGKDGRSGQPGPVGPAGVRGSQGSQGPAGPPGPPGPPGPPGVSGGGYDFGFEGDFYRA
T4 sequence (P02454 152-1207, chain 1 of 2): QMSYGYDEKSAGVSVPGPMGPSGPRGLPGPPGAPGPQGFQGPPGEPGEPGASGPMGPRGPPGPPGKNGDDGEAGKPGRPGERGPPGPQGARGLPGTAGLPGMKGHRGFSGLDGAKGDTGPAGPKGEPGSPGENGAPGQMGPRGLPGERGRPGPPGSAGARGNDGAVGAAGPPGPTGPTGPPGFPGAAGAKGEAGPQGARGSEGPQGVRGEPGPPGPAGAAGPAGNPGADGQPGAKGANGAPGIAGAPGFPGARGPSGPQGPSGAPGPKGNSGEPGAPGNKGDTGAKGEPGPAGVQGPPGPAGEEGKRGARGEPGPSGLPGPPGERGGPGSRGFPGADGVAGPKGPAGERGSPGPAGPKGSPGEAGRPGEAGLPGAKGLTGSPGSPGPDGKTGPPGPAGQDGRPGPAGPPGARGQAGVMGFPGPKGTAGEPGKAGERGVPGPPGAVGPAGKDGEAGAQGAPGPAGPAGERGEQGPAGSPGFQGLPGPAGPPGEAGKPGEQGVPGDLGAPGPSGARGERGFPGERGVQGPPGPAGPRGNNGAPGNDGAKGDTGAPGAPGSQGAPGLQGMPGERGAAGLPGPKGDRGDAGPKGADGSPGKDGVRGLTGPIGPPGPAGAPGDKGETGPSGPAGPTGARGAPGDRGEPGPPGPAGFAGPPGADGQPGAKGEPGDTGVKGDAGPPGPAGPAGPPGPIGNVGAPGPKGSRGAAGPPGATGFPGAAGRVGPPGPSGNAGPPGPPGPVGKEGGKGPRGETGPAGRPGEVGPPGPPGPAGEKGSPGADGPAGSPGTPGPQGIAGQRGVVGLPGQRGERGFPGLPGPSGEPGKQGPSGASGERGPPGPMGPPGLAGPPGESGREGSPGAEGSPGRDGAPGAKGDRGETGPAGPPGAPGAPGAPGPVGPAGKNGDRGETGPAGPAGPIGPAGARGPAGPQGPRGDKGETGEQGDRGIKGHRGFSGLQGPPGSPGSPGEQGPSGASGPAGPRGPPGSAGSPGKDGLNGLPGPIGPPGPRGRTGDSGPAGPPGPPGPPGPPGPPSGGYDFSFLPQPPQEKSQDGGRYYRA
T4 sequence (P02466 86-1125, chain 2 of 2): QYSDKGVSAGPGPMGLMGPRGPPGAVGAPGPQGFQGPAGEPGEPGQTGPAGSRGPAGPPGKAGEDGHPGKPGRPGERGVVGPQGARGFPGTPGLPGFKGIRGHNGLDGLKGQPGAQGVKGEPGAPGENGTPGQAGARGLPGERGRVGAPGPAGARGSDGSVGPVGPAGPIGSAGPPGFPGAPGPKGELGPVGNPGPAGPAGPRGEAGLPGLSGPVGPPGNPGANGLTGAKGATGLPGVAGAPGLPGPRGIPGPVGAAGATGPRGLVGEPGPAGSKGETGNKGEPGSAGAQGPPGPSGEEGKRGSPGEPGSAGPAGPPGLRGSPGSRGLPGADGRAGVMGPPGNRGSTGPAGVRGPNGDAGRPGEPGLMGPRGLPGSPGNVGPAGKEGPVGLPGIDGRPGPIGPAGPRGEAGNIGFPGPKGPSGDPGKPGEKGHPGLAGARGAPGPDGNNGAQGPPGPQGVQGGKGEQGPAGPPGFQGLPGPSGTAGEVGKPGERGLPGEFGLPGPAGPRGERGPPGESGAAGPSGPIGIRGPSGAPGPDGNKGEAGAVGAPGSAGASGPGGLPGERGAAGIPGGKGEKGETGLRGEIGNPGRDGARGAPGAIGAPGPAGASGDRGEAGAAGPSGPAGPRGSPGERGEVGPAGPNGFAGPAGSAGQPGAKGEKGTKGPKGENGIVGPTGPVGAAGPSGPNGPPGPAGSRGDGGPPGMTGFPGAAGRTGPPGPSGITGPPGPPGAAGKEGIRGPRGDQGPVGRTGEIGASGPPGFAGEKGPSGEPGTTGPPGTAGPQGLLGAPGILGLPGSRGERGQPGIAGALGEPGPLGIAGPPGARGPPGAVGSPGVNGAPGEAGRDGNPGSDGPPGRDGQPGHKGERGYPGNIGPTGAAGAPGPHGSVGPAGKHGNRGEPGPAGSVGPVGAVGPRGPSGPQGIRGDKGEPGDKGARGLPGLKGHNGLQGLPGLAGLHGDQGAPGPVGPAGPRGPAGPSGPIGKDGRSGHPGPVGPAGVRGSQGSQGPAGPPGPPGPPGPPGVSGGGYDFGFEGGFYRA

B1: NC410, LAIR-2 human IgG1 Fc fusion protein (Fc fusion)
chain: QEGALPRPSISAEPGTVISPGSHVTFMCRGPVGVQTFRLEREDRAKYKDSYNVFRLGPSESEARFHIDSVSEGNAGLYRCLYYKPPGWSEHSDFLELLVKESSGGPDSPDTEPGSSAGTVPGTEASGFDAP
As for B1, the Kd with human collagen I [1] is 0.126 nM; with rat collagen III [2], 0.878 nM; with mouse collagen I [3] it was 0.0918 nM; with rat collagen I [4], 0.0387 nM; in the assay with human collagen III [5] it was 0.51 nM; with human collagen I [16] it was 17.2 nM. Further, the Kd amounted to 115 nM with rat collagen III [17], 12.5 nM in the assay with mouse collagen I [18], 3.74 nM in the assay with rat collagen I [19] and 47 nM with human collagen III [20]. Moreover, the koff with human collagen I [6] was 0.000186 s⁻¹; with rat collagen III [7], 0.000433 s⁻¹; with mouse collagen I [8], 0.000194 s⁻¹; with rat collagen I [9], 0.000241 s⁻¹; with human collagen III [10], 0.000241 s⁻¹; with human collagen I [11] it was 0.000184 s⁻¹. Moreover, the off-rate constant (koff) in the assay with rat collagen III [12] was determined as 0.000432 s⁻¹; with mouse collagen I [13] it was 0.000194 s⁻¹; with rat collagen I [14] it was 0.000241 s⁻¹; with human collagen III [15], 0.000241 s⁻¹.
